Measured values: article PMC4200421, “A distinct tethering step is vital for vacuole membrane fusion” (eLife, 2014)
One block for each binder: values may come before it.

Target: T1, Vam3p (vacuolar Qa-SNARE), on 3Q-SNARE proteoliposomes (S. cerevisiae, UniProt Q12241 1-283)
T1 construct: Vam3p, vacuolar Qa-SNARE of Saccharomyces cerevisiae; Bait of the co-immunoprecipitation (anti-Vam3p antibody); In every experiment Vam3p stood on the same proteoliposomes as the Qb-SNARE Vti1p and the Qc-SNARE Vam7p (3Q-RPLs); Constructs are in cited work; also called 3Q-RPLs; 3Q-SNAREs
T1 sequence (looked up): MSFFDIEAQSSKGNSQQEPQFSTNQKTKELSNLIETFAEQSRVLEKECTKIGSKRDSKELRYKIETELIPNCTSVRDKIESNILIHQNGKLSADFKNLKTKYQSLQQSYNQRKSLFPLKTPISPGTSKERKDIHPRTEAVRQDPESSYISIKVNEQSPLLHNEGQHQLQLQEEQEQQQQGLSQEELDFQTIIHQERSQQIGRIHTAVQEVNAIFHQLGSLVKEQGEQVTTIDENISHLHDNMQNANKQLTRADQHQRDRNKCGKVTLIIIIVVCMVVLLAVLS
Experiment: co-IP; 1R-RPLs, or soluble Nyv1p at 100 nM, with 3Q-RPLs (Vam3p, Vti1p, Vam7p); 40 µl reaction 40 min at 27°C with HOPS (100 nM) or its buffer; diluted 10-fold in RIPA buffer with affinity-purified anti-Vam3p antibody (50 µg/ml) and 10 µM GST-Nyv1p; protein A magnetic beads, 2 hr room temperature; immunoblot with anti-Nyv1p
Conditions: both partners purified

- binding result: binds
B1: Soluble Nyv1p (sR), Nyv1(Δtm), Nyv1p(1-231) (domain or fragment, S. cerevisiae, UniProt Q12255 1-231, looked up)
chain: MKRFNVSYVEVIKNGETISSCFQPFQKNENYGTITSANEQITPVIFHNLIMDMVLPKVVPIKGNKVTKMSMNLIDGFDCFYSTDDHDPKTVYVCFTLVDMPKILPIRILSGLQEYESNATNELLSSHVGQILDSFHEELVEYRNQTLNSSGNGQSSNGNGQNTISDIGDATEDQIKDVIQIMNDNIDKFLERQERVSLLVDKTSQLNSSSNKFRRKAVNIKEIMWWQKVKN
notes: Nyv1p of Saccharomyces cerevisiae without its transmembrane anchor (Δtm); the methods name only Nyv1(Δtm); also called sNyv1p; recombinant soluble domain of Nyv1p; source: purified as GST-TEVsite-Nyv1(Δtm) as described (Thorngren et al., 2004), cleaved with TEV protease prior to use; not shown: GST, N-terminal, cleaved

- binding result: binds
B2: Nyv1p (vacuolar R-SNARE), membrane-anchored, on R-SNARE proteoliposomes (natural protein, S. cerevisiae, UniProt Q12255 1-253, looked up)
chain: MKRFNVSYVEVIKNGETISSCFQPFQKNENYGTITSANEQITPVIFHNLIMDMVLPKVVPIKGNKVTKMSMNLIDGFDCFYSTDDHDPKTVYVCFTLVDMPKILPIRILSGLQEYESNATNELLSSHVGQILDSFHEELVEYRNQTLNSSGNGQSSNGNGQNTISDIGDATEDQIKDVIQIMNDNIDKFLERQERVSLLVDKTSQLNSSSNKFRRKAVNIKEIMWWQKVKNITLLTFTIILFVSAAFMFFYLW
notes: Nyv1p, vacuolar R-SNARE of Saccharomyces cerevisiae, membrane-anchored form; Schwartz and Merz, 2009; Zucchi and Zick, 2011 for the SNARE constructs; Exchanged into octylglucoside buffer before reconstitution; also called wild-type Nyv1p; 1R; source: pure recombinant protein, purified as described (cited work), reconstituted into proteoliposomes by detergent dialysis
